Measured values: US20260258084A1, “New Peptides as Selective IL-23 Receptor Antagonists” (Sanofi, priority 2022, published 2026)
Starred links: 1 amine or outer side, 2 acyl side, 3 side chain; linkers in the order of their positions; H or OH if unused. Positions of bridges follow the written chain, without caps; N, C: chain ends. Non-standard residues stand in square brackets, D forms with d. No end group written: not given here. Yde = (2S)-2-amino-3-[4-[2-(dimethylamino)ethoxy]phenyl]propanoic acid, CN(C)CCOc1ccc(C[C@H](N[*:1])C(=O)[*:2])cc1; NdmK = (2S)-6-amino-2-(dimethylamino)hexanoic acid, CN(C)[C@@H](CCCCN[*:3])C(=O)[*:2]; Trp(7-Me) = Cc1cccc2c(C[C@H](N)C(=O)O)c[nH]c12; Tyr(Me) = COc1ccc(C[C@H](N[*:1])C(=O)[*:2])cc1; αMeLys(Me2) = CN(C)CCCC[C@](C)(N)C(=O)O; 2Nal = N[C@@H](Cc1ccc2ccccc2c1)C(=O)O; εLys = N[C@@H](CCCCN[*:1])C(=O)[*:2]; NMe5Ava = CN(CCCCC(=O)[*:2])[*:1]; 3Pal = N[C@@H](Cc1cccnc1)C(=O)O; αMeL = CC(C)C[C@](C)(N)C(=O)O; Thp = NC1(C(=O)O)CCOCC1; Aib = CC(C)(N)C(=O)O; Ava = NCCCCC(=O)O; Sar = CNCC(=O)O

T1: IL-23 receptor on the surface of HEK-Blue IL-23 cells (UniProt Q5VWK5 24-629, limits assumed)
T1 sequence (looked up): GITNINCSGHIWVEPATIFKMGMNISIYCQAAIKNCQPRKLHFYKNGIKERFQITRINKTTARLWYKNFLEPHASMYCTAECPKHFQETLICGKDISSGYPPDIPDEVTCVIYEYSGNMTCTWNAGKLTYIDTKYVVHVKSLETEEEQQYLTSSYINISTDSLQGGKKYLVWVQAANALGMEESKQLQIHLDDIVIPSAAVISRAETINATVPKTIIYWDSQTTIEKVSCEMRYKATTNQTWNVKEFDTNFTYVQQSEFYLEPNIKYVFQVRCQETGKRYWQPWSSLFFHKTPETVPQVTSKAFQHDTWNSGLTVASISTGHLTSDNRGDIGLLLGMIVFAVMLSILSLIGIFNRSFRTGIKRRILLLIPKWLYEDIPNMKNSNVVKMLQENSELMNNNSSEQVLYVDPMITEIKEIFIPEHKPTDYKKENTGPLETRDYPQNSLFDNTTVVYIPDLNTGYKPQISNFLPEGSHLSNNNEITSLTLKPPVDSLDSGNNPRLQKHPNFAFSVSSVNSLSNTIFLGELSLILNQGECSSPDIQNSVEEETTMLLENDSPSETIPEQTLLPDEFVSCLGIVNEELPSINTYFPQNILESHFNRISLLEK

T2: recombinant human IL-23R-Fc chimera (human, UniProt Q5VWK5 24-353)
T2 construct: used at 0.1 µg/ml in the ELISA; not shown: Fc part of the chimera; detected with goat anti-hu-IgG1-HRP a
T2 sequence (looked up): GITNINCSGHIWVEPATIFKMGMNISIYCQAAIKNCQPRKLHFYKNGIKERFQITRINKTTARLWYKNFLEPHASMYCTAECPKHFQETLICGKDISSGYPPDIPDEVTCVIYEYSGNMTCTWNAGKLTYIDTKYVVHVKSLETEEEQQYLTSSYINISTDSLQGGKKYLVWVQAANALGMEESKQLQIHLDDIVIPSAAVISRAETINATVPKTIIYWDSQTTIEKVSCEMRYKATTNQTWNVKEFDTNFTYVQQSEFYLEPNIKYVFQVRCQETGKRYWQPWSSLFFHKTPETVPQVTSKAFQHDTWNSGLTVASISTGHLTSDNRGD

B1: Compound of SEQ ID NO: 35 (peptide)
peptide: [Ava]CNT[Trp(7-Me)]K(Ac)C[Yde][2Nal][Thp]EN[3Pal][Sar]-NH2
modifications: lactam N-11; disulfide 2-7
SMILES: CC(=O)NCCCC[C@@H]1NC(=O)[C@H](Cc2c[nH]c3c(C)cccc23)NC(=O)[C@H]([C@@H](C)O)NC(=O)[C@H](CC(N)=O)NC(=O)[C@@H]2CSSC[C@H](NC1=O)C(=O)N[C@@H](Cc1ccc(OCCN(C)C)cc1)C(=O)N[C@@H](Cc1ccc3ccccc3c1)C(=O)NC1(CCOCC1)C(=O)N[C@H](C(=O)N[C@@H](CC(N)=O)C(=O)N[C@@H](Cc1cccnc1)C(=O)N(C)CC(N)=O)CCC(=O)NCCCCC(=O)N2
B2: Compound of SEQ ID NO: 7 (peptide)
peptide: K(Ac)CNTWQC[Tyr(Me)][2Nal][Aib]DNN-NH2
modifications: lactam (positions not given here); disulfide 2-7; not fully specified (bridges); printed as K[Ac](§1)-C(@2)-N-T-W-Q-C(@2)-Yme-Nal-Aib-D(§1)-N—N—NH2; also: K1 acetylated, whether acetyl is on alpha-N or epsilon-N (lactam via the other amine) not settled
notes: §1 lactam bridge; @2 disulfide bridge
B3: Compound of SEQ ID NO: 65 (peptide)
peptide: [Ava]CNT[Trp(7-Me)]K(Ac)C[Yde][2Nal][αMeL]EN[3Pal][Sar]-NH2
modifications: lactam N-11; disulfide 2-7
SMILES: CC(=O)NCCCC[C@@H]1NC(=O)[C@H](Cc2c[nH]c3c(C)cccc23)NC(=O)[C@H]([C@@H](C)O)NC(=O)[C@H](CC(N)=O)NC(=O)[C@@H]2CSSC[C@H](NC1=O)C(=O)N[C@@H](Cc1ccc(OCCN(C)C)cc1)C(=O)N[C@@H](Cc1ccc3ccccc3c1)C(=O)N[C@@](C)(CC(C)C)C(=O)N[C@H](C(=O)N[C@@H](CC(N)=O)C(=O)N[C@@H](Cc1cccnc1)C(=O)N(C)CC(N)=O)CCC(=O)NCCCCC(=O)N2
B4: Compound of SEQ ID NO: 28 (peptide)
peptide: [Ava]C[εLys](Ac)WQC[Yde][2Nal][αMeL]ENN-NH2
modifications: lactam N-10; disulfide 2-6; also: Cys2 carboxyl bonded to Lys3 epsilon-NH2 (isopeptide), Lys3 alpha-N acetylated

What was measured:
[1] = molecular target: T1, IL-23 receptor on the surface of …; assay: cell-based or functional assay
[2] = molecular target: T2, recombinant human IL-23R-Fc chimera; assay: competition ELISA: IL-23R-Fc binding to coated human IL23
Experimental: Antagonism of compounds for human interleukin-23 receptor antagonists, was determined by an ELISA assay.
A 384-well plate was coated with 50 μl/well of human IL23 at a final concentration of […] and incubated overnight at 4° C. The wells were washed 3 times with 80 μl wash buffer and blocked with 80 μl blocking buffer for 60 minutes at room temperature and washed again. 20 μl of serially diluted test peptides was added to each well and subsequently 20 μl of recombinant human IL-23R-Fc chimera at final concentration of 0.1 μg/ml. The plate was incubated for 60 minutes at room temperature. After the wells were washed, bound IL23R-Fc was detected with goat anti-hu-IgG1-HRP antibody. Signals were visualized with QuantaBlu Fluorogenic Peroxidase Substrate.

| Binder | pSTAT3 (nM) [1] | IC50 [2] |
| --- | --- | --- |
| B1 | 0.34 nM | 0.34 nM |
| [NMe5Ava]C[NdmK][Trp(7-Me)]K(Ac)C[Yde][2Nal][αMeLys(Me2)]EN[3Pal][Sar]-NH2 (lactam N-10; disulfide 2-6) [Compound of SEQ ID NO: 61] | 4.4 nM | 0.36 nM |
| B2 | 25 nM | 0.6 nM |
| B3 | 0.23 nM | 0.37 nM |
| B4 | 4.11 nM | 0.39 nM |
